The target of this data set is bovine albumin (BSA) (bovine, UniProt P02769 25-607). The data set is described as follows: SPR. (In SPR one partner is held on a chip, and binding of the other changes the refractive index at the surface.)
Chain of bovine albumin (BSA) (P02769 25-607): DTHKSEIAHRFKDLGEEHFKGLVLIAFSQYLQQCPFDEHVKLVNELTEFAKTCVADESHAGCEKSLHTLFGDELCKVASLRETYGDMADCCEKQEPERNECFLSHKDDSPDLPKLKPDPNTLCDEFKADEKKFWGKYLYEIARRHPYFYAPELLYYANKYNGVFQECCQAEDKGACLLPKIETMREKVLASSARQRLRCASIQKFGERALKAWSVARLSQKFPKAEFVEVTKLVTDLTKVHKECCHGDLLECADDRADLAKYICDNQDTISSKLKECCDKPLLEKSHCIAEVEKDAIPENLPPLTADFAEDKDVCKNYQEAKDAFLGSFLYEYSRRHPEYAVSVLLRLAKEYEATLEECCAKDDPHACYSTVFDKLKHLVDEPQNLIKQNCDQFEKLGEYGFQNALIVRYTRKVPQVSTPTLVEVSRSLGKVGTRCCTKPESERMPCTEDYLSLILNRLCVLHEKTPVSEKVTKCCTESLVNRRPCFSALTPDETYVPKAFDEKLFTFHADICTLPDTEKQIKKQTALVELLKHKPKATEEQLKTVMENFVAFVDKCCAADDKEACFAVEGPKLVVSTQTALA

B1: N58 aptamer (SARS-CoV-2-N58) (ssDNA)
DNA: GCTGGATGTCACCGGATTGTCGGACATCGGATTGTCTGAGTCATATGACACATCCAGC
For the molecule B1, the binding result is on record as “no binding”.

Source of the values: PMC8412382.
